US10562947B2, “Compositions and methods for preventing or treating diseases, conditions or processes characterized by aberrant fibroblast proliferation and extracellular matrix deposition” (MOERAE MATRIX, INC., priority 2011, dated 2020)
Where a SMILES comes first, the peptide text is derived from it.

How the values were obtained:
Assay in all cases: Kinase Profiling Assay
Type in all cases: biochemical
SAPK2b(h) = SAPK2b(h) (Homo sapiens, UniProt Q15759); details: 100 μM peptide
How it was run: (§1)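 In duplicate, the activities of 266 available human kinases were determined with MK2 inhibitory peptides present, as a measure of peptide selectivity.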

Pim-1(h) = Pim-1(h) (Homo sapiens, UniProt P11309); details: 100 μM peptide
How it was run: as §1

CDK5/p35(h) = CDK5/p35(h) (Homo sapiens, UniProt Q00535); details: 100 μM peptide
CDK5/p35(h), sequence (Q00535 whole entry): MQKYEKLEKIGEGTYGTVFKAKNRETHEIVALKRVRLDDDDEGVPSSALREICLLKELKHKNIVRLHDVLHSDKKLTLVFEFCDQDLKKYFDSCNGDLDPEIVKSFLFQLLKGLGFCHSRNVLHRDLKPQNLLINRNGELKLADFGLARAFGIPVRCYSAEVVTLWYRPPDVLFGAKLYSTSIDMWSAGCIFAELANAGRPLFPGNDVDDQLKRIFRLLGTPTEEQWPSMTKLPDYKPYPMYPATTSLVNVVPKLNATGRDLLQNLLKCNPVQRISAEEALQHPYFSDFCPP
CDK5/p35(h), sequence (Q15078 2-307 partner limits assumed): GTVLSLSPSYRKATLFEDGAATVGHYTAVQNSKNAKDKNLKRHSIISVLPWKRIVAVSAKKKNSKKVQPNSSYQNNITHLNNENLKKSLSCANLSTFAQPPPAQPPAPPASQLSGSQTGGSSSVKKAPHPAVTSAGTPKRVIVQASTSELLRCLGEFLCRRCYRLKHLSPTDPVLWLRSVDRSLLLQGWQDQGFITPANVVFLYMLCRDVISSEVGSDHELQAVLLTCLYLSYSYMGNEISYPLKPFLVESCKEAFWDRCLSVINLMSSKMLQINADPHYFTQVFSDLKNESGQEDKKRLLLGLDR
How it was run: as §1

cKit(D816V)(h) = cKit(D816V)(h) (Homo sapiens, UniProt P10721, D816V); details: 100 μM peptide
How it was run: as §1

CHK2(R145W)(h) = CHK2(R145W)(h) (Homo sapiens, UniProt O96017, R145W); details: 100 μM peptide
How it was run: as §1

MLCK(h) = MLCK(h) (Homo sapiens, UniProt Q9H1R3); details: 100 μM peptide
MLCK(h), sequence (Q9H1R3 2-596 limits assumed): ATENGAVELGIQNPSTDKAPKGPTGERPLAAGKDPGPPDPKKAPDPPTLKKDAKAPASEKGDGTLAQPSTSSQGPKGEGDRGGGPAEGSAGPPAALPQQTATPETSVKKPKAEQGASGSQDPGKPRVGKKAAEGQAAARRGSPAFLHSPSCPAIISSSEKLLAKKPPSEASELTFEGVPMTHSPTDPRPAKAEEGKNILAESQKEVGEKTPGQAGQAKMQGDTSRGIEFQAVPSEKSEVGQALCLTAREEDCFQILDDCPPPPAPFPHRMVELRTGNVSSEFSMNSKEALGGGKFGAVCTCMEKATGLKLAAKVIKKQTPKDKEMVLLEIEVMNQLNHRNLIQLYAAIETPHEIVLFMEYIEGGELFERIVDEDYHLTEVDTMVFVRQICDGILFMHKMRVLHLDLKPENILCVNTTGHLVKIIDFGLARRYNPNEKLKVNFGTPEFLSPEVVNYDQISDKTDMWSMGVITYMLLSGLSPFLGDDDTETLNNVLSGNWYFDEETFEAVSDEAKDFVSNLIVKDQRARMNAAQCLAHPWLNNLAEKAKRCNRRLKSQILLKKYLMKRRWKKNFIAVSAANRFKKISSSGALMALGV
How it was run: as §1

Pim-2(h) = Pim-2(h) (Homo sapiens, UniProt Q9P1W9); details: 100 μM peptide
How it was run: as §1

F1t3(h) = F1t3(h) (Homo sapiens, UniProt P36888); details: 100 μM peptide
How it was run: as §1

TrkB(h) = TrkB(h) (Homo sapiens, UniProt Q16620); details: for TrkB(h) % activity: 100 μM peptide
How it was run: as §1

Fer(h) = Fer(h) (Homo sapiens, UniProt P16591); details: 100 μM peptide
How it was run: as §1

PKCβII(h) = PKCβII(h) (Homo sapiens, UniProt P05771); details: 100 μM peptide
How it was run: as §1

GRK7(h) = target: T1, GRK7(h) (Homo sapiens, UniProt Q8WTQ7); details: 100 μM peptide
T1 construct: purchased Millipore
T1 sequence (Q8WTQ7 1-553): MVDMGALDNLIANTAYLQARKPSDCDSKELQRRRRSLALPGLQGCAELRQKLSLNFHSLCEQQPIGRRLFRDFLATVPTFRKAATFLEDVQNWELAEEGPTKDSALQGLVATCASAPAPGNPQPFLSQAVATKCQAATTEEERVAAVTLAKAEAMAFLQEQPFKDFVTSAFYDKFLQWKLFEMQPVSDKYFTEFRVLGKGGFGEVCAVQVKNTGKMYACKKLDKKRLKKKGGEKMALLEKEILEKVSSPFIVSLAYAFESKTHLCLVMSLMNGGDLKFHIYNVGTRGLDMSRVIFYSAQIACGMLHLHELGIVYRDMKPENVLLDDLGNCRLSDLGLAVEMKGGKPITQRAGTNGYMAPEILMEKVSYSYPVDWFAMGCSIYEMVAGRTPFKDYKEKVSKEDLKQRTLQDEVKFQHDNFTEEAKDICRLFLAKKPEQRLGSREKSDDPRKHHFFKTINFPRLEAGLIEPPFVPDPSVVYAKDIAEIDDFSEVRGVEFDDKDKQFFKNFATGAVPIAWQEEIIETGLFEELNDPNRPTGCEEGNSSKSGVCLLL
How it was run: as §1

MuSK(h) = target: T2, MuSK(h) (Homo sapiens, UniProt O15146); details: 100 μM peptide
T2 sequence (O15146 24-869): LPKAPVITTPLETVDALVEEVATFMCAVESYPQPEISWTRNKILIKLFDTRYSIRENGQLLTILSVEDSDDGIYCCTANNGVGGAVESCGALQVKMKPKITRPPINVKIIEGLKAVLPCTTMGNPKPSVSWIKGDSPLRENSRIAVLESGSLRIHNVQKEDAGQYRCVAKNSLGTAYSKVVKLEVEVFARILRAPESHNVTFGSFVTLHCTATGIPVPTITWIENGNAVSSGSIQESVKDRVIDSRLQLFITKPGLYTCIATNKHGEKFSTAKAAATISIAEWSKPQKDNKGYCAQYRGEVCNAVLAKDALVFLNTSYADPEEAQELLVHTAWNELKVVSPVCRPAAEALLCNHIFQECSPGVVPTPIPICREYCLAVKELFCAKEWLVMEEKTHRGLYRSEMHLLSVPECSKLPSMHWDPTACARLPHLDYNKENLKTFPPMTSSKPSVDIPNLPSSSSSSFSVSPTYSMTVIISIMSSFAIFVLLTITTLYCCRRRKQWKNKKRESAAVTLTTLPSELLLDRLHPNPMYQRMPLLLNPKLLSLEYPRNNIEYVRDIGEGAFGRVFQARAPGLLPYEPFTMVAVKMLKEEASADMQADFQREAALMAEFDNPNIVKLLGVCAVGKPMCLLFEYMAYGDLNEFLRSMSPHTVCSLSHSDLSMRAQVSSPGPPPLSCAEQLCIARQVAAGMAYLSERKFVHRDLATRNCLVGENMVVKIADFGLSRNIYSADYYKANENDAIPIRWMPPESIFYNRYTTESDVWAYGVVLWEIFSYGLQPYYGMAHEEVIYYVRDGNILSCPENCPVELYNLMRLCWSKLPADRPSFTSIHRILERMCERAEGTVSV
How it was run: as §1

PDGFRβ(h) = PDGFRβ(h) (Homo sapiens, UniProt P09619); details: 100 μM peptide
How it was run: as §1

NEK6(h) = NEK6(h) (Homo sapiens, UniProt Q9HC98); details: 100 μM peptide
NEK6(h), sequence (Q9HC98 whole entry): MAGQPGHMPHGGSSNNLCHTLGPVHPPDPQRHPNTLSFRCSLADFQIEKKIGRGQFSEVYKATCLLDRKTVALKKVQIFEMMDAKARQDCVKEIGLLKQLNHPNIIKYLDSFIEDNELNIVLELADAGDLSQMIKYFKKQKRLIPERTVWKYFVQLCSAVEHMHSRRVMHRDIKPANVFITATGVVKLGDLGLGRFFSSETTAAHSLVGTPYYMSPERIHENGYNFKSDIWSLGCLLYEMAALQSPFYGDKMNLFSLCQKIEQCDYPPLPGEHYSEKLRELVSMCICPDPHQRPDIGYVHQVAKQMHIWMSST
How it was run: as §1

Tie2(Y897S)(h) = Tie2(Y897S)(h) (Homo sapiens, UniProt Q02763, Y897S); details: 100 μM peptide
Tie2(Y897S)(h), sequence (Q02763 23-1124 Y897S): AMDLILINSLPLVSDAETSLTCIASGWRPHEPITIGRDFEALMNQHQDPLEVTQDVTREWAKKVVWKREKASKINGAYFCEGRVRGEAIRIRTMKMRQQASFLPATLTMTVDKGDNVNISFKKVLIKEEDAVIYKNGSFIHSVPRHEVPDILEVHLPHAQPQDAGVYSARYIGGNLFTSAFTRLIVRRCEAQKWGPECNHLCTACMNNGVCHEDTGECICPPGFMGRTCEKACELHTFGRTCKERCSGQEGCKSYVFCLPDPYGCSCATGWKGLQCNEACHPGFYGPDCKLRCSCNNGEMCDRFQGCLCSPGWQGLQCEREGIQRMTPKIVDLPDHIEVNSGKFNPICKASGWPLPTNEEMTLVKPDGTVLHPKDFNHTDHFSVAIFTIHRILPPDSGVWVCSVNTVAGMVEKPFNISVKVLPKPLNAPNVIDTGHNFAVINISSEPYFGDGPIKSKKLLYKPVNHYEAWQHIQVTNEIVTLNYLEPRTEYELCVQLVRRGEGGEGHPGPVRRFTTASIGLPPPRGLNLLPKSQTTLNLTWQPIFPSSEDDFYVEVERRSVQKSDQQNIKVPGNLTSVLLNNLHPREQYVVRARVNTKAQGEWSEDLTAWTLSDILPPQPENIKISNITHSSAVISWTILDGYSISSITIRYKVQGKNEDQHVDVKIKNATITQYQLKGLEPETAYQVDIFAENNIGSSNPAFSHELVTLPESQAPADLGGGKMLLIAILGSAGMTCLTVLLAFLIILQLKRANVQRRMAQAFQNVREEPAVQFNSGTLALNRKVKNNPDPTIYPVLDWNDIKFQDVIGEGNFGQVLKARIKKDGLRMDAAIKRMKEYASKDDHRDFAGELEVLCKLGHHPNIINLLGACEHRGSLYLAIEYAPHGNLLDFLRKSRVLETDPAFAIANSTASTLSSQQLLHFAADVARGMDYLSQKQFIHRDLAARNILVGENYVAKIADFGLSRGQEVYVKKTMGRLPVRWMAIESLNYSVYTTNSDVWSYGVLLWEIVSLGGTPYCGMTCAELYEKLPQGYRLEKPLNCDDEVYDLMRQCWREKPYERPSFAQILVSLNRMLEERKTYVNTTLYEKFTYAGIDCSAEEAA
How it was run: as §1

ROCK-I(h) = target: T3, ROCK-I(h) (Homo sapiens, UniProt Q13464); details: 100 μM peptide
T3 construct: purchased Millipore (IC50 Profiler Express service)
How it was run: as §1

F1t4(h) = F1t4(h) (Homo sapiens, UniProt P35916); details: 100 μM peptide
F1t4(h), sequence (P35916 25-1363): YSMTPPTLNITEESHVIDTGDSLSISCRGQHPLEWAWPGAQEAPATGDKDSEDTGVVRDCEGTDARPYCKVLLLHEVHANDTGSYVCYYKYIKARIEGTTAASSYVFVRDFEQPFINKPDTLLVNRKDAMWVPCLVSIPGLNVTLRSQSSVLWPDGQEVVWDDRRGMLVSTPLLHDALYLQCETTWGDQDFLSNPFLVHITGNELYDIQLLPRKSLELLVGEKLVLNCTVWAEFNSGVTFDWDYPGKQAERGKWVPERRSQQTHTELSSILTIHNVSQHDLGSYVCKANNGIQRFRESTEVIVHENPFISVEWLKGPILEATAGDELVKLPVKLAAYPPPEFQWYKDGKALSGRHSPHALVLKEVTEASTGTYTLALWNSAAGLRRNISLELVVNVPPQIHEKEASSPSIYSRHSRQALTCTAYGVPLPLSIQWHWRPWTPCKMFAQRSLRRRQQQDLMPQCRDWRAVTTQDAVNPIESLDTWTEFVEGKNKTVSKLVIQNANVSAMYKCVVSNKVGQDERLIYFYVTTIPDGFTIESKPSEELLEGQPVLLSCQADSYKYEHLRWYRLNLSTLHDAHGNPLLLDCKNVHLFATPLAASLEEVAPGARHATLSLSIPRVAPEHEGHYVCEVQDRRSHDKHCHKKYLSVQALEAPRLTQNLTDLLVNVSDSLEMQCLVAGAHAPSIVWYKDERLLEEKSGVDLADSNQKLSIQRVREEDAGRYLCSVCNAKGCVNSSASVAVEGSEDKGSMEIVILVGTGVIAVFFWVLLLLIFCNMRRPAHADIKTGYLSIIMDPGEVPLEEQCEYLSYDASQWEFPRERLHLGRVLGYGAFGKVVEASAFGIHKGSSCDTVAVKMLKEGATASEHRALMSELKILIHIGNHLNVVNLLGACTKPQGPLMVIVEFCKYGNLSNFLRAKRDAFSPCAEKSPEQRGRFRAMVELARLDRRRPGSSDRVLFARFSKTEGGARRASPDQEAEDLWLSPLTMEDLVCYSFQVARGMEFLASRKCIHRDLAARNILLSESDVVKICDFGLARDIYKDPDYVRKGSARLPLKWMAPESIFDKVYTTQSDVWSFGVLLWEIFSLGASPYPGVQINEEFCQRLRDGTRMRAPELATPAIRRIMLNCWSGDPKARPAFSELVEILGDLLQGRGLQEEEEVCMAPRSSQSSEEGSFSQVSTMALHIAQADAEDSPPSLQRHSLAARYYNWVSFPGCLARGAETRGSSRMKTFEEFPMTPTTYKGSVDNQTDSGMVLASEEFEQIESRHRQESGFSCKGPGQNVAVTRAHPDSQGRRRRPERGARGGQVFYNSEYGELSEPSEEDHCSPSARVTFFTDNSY
How it was run: as §1

HIPK1(h) = target: T4, HIPK1(h) (Homo sapiens, UniProt Q86Z02); details: 100 μM peptide
T4 construct: purchased Millipore
How it was run: as §1

p70S6K(h) = p70S6K(h) (Homo sapiens, UniProt P23443); details: 100 μM peptide
p70S6K(h), sequence (P23443 whole entry): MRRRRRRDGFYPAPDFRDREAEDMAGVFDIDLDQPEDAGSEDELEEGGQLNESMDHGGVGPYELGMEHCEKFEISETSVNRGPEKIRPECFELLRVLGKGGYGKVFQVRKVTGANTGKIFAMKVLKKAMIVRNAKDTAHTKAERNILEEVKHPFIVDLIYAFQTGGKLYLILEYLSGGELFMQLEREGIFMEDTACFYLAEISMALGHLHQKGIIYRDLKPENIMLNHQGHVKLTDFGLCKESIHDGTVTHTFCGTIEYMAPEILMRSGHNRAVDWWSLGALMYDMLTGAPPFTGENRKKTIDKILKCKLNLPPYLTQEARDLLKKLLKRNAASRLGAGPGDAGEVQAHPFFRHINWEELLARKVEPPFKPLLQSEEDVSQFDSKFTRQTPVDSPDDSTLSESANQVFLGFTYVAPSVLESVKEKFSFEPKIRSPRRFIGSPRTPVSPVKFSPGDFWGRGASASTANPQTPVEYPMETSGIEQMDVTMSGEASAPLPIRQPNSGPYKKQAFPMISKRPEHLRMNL
How it was run: as §1

Met(Y1248H)(h) = Met(Y1248H)(h) (Homo sapiens, UniProt P08581, Y1230H); details: 100 μM peptide
How it was run: as §1

SRPK2(h) = SRPK2(h) (Homo sapiens, UniProt P78362); details: 100 μM peptide
How it was run: as §1

SAPK2b(h), sequence (Q15759 whole entry): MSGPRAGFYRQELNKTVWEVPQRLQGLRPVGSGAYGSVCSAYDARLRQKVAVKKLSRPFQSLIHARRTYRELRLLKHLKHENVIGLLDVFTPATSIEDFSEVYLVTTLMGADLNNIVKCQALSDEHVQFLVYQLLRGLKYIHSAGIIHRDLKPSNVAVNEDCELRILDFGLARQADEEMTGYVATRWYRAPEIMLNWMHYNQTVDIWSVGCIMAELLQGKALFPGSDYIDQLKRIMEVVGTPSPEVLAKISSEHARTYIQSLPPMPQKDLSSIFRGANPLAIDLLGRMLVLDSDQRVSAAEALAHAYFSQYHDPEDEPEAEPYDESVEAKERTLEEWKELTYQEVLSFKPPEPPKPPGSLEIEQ

Row | Compound | SAPK2b(h) % activity (SAPK2b(h)) [%] | Pim-1(h) % activity (Pim-1(h)) [%] | CDK5/p35(h) % activity (CDK5/p35(h)) [%] | cKit(D816V)(h) % activity (cKit(D816V)(h)) [%] | CHK2(R145W)(h) % activity (CHK2(R145W)(h)) [%] | MLCK(h) % activity (MLCK(h)) [%] | Pim-2(h) % activity (Pim-2(h)) [%] | F1t3(h) % activity (F1t3(h)) [%] | TrkB(h) % activity (TrkB(h)) [%] | Fer(h) % activity (Fer(h)) [%] | PKCβII(h) % activity (PKCβII(h)) [%] | GRK7(h) % activity (GRK7(h)) [%] | MuSK(h) % activity (MuSK(h)) [%] | PDGFRβ(h) % activity (PDGFRβ(h)) [%] | NEK6(h) % activity (NEK6(h)) [%] | Tie2(Y897S)(h) % activity (Tie2(Y897S)(h)) [%] | ROCK-I(h) % activity (ROCK-I(h)) [%] | F1t4(h) % activity (F1t4(h)) [%] | HIPK1(h) % activity (HIPK1(h)) [%] | p70S6K(h) % activity (p70S6K(h)) [%] | further results
1 | HRRIKAWLKKIKALARQLGVAA (Mammalian) [MMI-0500] | 42 | 0 | 59 | 30 | 3 | 0 | 46 | 17 | 12 | 196 | 3 | 93 | 27 | 40 | 49 | 80 | 17 | 73 | 47 | 3 | Met(Y1248H)(h) % activity (Met(Y1248H)(h)): 126%; SRPK2(h) % activity (SRPK2(h)): 80%
2 | KAFAKLAARLYRKALARQLGVAA [MMI-0400] | 82 | 7 | 76 | 35 | 31 | 1 | 92 | 18 | 8 | 108 | 75 | 100 | 93 | 53 | 85 | 87 | 73 | 89 | 91 | 33 | Met(Y1248H)(h) % activity (Met(Y1248H)(h)): 63%; SRPK2(h) % activity (SRPK2(h)): 97%
3 | FAKLAARLYRKALARQLGVAA [MMI-0300] | 81 | 8 | 79 | 60 | 33 | 2 | 76 | 84 | 5 | 130 | 82 | 122 | 93 | 81 | 82 | 83 | 79 | 83 | 74 | 35 | –
4 | YARAAARQARAKALNRQLGVA (Mammalian) [MMI-0200] | 95 | 18 | 92 | 118 | 81 | – | 74 | 99 | 7 | 101 | 100 | 124 | – | 137 | 98 | 85 | – | – | – | 84 | Met(Y1248H)(h) % activity (Met(Y1248H)(h)): 153%; SRPK2(h) % activity (SRPK2(h)): 100%
5 | CC(C)C[C@H](NC(=O)[C@H](C)NC(=O)[C@H](CCCCN)NC(=O)[C@H](C)NC(=O)[C@H](CCCNC(=N)N)NC(=O)[C@H](C)NC(=O)[C@H](CCC(N)=O)NC(=O)[C@H](CCCNC(=N)N)NC(=O)[C@H](C)NC(=O)[C@H](C)NC(=O)[C@H](C)NC(=O)[C@H](CCCNC(=N)N)NC(=O)[C@H](C)NC(=O)[C@@H](N)Cc1ccc(O)cc1)C(=O)N[C@@H](C)C(=O)N[C@@H](CCCNC(=N)N)C(=O)N[C@@H](CCC(N)=O)C(=O)N[C@@H](CC(C)C)C(=O)NCC(=O)N[C@H](C(=O)N[C@@H](C)C(=O)N[C@@H](C)C(=O)O)C(C)C [MMI-0100] (H-YARAAARQARAKALARQLGVAA-OH; N-terminus and C-terminus assumed) | – | – | – | – | – | – | – | – | – | – | – | – | – | – | – | – | – | – | – | – | inhibition at 100 µM (TrkB(h); read-out: inhibition of kinase activity of TrkB): > 65%
